Target: T1, thio GLP-1 (GLP-1 7-36 with a thioamide at the Ala8-Glu9 scissile bond)
T1 chain: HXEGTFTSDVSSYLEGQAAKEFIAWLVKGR

B1: dipeptidyl peptidase 4 (DPP-4) (protein)
chain: SRKTYTLTDYLKNTYRLKLYSLRWISDHEYLYKQENNILVFNAEYGNSSVFLENSTFDEFGHSINDYSISPDGQFILLEYNYVKQWRHSYTASYDIYDLNKRQLITEERIPNNTQWVTWSPVGHKLAYVWNNDIYVKIEPNLPSYRITWTGKEDIIYNGITDWVYEEEVFSAYSALWWSPNGTFLAYAQFNDTEVPLIEYSFYSDESLQYPKTVRVPYPKAGAVNPTVKFFVVNTDSLSSVTNATSIQITAPASMLIGDHYLCDVTWATQERISLQWLRRIQNYSVMDICDYDESSGRWNCLVARQHIEMSTTGWVGRFRPSEPHFTLDGNSFYKIISNEEGYRHICYFQIDKKDCTFITKGTWEVIGIEALTSDYLYYISNEYKGMPGGRNLYKIQLSDYTKVTCLSCELNPERCQYYSVSFSKEAKYYQLRCSGPGLPLYTLHSSVNDKGLRVLEDNSALDKMLQNVQMPSKKLDFIILNETKFWYQMILPPHFDKSKKYPLLLDVYAGPCSQKADTVFRLNWATYLASTENIIVASFDGRGSGYQGDKIMHAINRRLGTFEVEDQIEAARQFSKMGFVDNKRIAIWGWSYGGYVTSMVLGSGSGVFKCGIAVAPVSRWEYYDSVYTERYMGLPTPEDNLDHYRNSTVMSRAENFKQVEYLLIHGTADDNVHFQQSAQISKALVDVGVDFQAMWYTDEDHGIASSTAHQHIYTHMSHFIKQCFSLP
B1 was tested, and the “cleavage of Gly-Pro-pNA substrate by DPP-4” value was “did not inhibit cleavage of Gly-Pro-pNA substrate at 100 µM”.
